From paper PMC4315173 (The Biochemical journal, 2014)
Each block holds one molecule with its values, some of them ahead of it.

Key:
[1] = target: endogenous PDE4D (mouse brain) (mouse (endogenous in brain)) (UniProt Q01063); assay: co-IP
[2] = target: the molecule itself; assay: SEC + other: sucrose density gradient centrifugation

Sequence of endogenous PDE4D (mouse brain) (mouse (endogenous in brain)) (Q01063 whole entry): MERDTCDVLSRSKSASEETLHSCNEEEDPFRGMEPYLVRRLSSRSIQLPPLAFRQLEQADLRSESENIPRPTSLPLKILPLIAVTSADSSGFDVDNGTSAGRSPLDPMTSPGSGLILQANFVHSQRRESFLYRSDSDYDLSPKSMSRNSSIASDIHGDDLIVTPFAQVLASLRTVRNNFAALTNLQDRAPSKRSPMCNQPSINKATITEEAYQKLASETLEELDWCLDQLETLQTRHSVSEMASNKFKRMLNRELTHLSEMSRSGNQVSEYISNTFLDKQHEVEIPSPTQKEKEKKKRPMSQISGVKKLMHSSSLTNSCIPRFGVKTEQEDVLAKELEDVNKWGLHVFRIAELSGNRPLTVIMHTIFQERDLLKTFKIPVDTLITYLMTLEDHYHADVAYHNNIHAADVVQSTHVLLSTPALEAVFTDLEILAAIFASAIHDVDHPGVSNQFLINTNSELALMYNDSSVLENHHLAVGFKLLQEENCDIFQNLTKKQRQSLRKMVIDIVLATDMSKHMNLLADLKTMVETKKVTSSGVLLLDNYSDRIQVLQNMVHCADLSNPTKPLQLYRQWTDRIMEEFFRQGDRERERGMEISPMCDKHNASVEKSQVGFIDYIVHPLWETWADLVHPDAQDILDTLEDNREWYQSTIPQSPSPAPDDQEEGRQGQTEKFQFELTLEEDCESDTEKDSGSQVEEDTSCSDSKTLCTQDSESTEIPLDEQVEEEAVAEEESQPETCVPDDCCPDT

percent of the total PDE4A found in complex with PDE4D [1]: 2%
Molecule: endogenous long PDE4A variants (mouse brain) (from UniProt O89084 1-844) (natural protein)

B1: PDE4D5 (natural protein, rat, UniProt P14270-8 1-745, looked up)
chain: MAQQTTSPDTLTVPEVDNPHVPNPWLNEDLVKSLRENLLQHEKSKTARKSVSPKLSPVISPRNSPRLLRRMLLSSNIPKQRRFTVAHTCFDVDNGTSAGRSPLDPMTSPGSGLILQANFVHSQRRESFLYRSDSDYDLSPKSMSRNSSIASDIHGDDLIVTPFAQVLASLRTVRNNFAALTNLQDRAPSKRSPMCNQPSINKATITEEAYQKLASETLEELDWCLDQLETLQTRHSVSEMASNKFKRMLNRELTHLSEMSRSGNQVSEYISNTFLDKQHEVEIPSPTQKEKEKKKRPMSQISGVKKLMHSSSLTNSCIPRFGVKTEQEDVLAKELEDVNKWGLHVFRIAELSGNRPLTVIMHTIFQERDLLKTFKIPVDTLITYLMTLEDHYHADVAYHNNIHAADVVQSTHVLLSTPALEAVFTDLEILAAIFASAIHDVDHPGVSNQFLINTNSELALMYNDSSVLENHHLAVGFKLLQEENCDIFQNLTKKQRQSLRKMAIDIVLATDMSKHMNLLADLKTMVETKKVTSSGVLLLDNYSDRIQVLQNMVHCADLSNPTKPLQLYRQWTDRIMEEFFRQGDRERERGMEISPMCDKHNASVEKSQVGFIDYIVHPLWETWADLVHPDAQDILDTLEDNREWYQSTIPQSPSPAPDDQEDGRQGQTEKFQFELTLEEDGESDTEKDSGSQVEEDTSCSDSKTLCTQDSESTEIPLDEQVEEEAVAEEESQPQTGVADDCCPDT
stoichiometry N [2]: 2

B2: PDE4D4 (natural protein, rat, UniProt P14270-5 1-803, looked up)
chain: MEAEGSSVPARAGSHEGSDSSGGAALKAPKHLWRHEQHHQYPLRQPQFRLLHPHHHLPPPPPPSPQPQLQPPPPPPLPPPPPPPGATRGRYASSGASRVRHRGYSDTERYLYCRAMDRTSYAVETGHRPGLKKSRMSWPSSFQGLRRFDVDNGTSAGRSPLDPMTSPGSGLILQANFVHSQRRESFLYRSDSDYDLSPKSMSRNSSIASDIHGDDLIVTPFAQVLASLRTVRNNFAALTNLQDRAPSKRSPMCNQPSINKATITEEAYQKLASETLEELDWCLDQLETLQTRHSVSEMASNKFKRMLNRELTHLSEMSRSGNQVSEYISNTFLDKQHEVEIPSPTQKEKEKKKRPMSQISGVKKLMHSSSLTNSCIPRFGVKTEQEDVLAKELEDVNKWGLHVFRIAELSGNRPLTVIMHTIFQERDLLKTFKIPVDTLITYLMTLEDHYHADVAYHNNIHAADVVQSTHVLLSTPALEAVFTDLEILAAIFASAIHDVDHPGVSNQFLINTNSELALMYNDSSVLENHHLAVGFKLLQEENCDIFQNLTKKQRQSLRKMAIDIVLATDMSKHMNLLADLKTMVETKKVTSSGVLLLDNYSDRIQVLQNMVHCADLSNPTKPLQLYRQWTDRIMEEFFRQGDRERERGMEISPMCDKHNASVEKSQVGFIDYIVHPLWETWADLVHPDAQDILDTLEDNREWYQSTIPQSPSPAPDDQEDGRQGQTEKFQFELTLEEDGESDTEKDSGSQVEEDTSCSDSKTLCTQDSESTEIPLDEQVEEEAVAEEESQPQTGVADDCCPDT
stoichiometry N [2]: 2

B3: PDE4D3 (natural protein, UniProt P14270-1 1-672, looked up)
chain: MMHVNTFPFRRHSWICFDVDNGTSAGRSPLDPMTSPGSGLILQANFVHSQRRESFLYRSDSDYDLSPKSMSRNSSIASDIHGDDLIVTPFAQVLASLRTVRNNFAALTNLQDRAPSKRSPMCNQPSINKATITEEAYQKLASETLEELDWCLDQLETLQTRHSVSEMASNKFKRMLNRELTHLSEMSRSGNQVSEYISNTFLDKQHEVEIPSPTQKEKEKKKRPMSQISGVKKLMHSSSLTNSCIPRFGVKTEQEDVLAKELEDVNKWGLHVFRIAELSGNRPLTVIMHTIFQERDLLKTFKIPVDTLITYLMTLEDHYHADVAYHNNIHAADVVQSTHVLLSTPALEAVFTDLEILAAIFASAIHDVDHPGVSNQFLINTNSELALMYNDSSVLENHHLAVGFKLLQEENCDIFQNLTKKQRQSLRKMAIDIVLATDMSKHMNLLADLKTMVETKKVTSSGVLLLDNYSDRIQVLQNMVHCADLSNPTKPLQLYRQWTDRIMEEFFRQGDRERERGMEISPMCDKHNASVEKSQVGFIDYIVHPLWETWADLVHPDAQDILDTLEDNREWYQSTIPQSPSPAPDDQEDGRQGQTEKFQFELTLEEDGESDTEKDSGSQVEEDTSCSDSKTLCTQDSESTEIPLDEQVEEEAVAEEESQPQTGVADDCCPDT
stoichiometry N [2]: 2

B4: PDE4A4 (natural protein, human, UniProt P27815-1 1-886, looked up)
chain: MEPPTVPSERSLSLSLPGPREGQATLKPPPQHLWRQPRTPIRIQQRGYSDSAERAERERQPHRPIERADAMDTSDRPGLRTTRMSWPSSFHGTGTGSGGAGGGSSRRFEAENGPTPSPGRSPLDSQASPGLVLHAGAATSQRRESFLYRSDSDYDMSPKTMSRNSSVTSEAHAEDLIVTPFAQVLASLRSVRSNFSLLTNVPVPSNKRSPLGGPTPVCKATLSEETCQQLARETLEELDWCLEQLETMQTYRSVSEMASHKFKRMLNRELTHLSEMSRSGNQVSEYISTTFLDKQNEVEIPSPTMKEREKQQAPRPRPSQPPPPPVPHLQPMSQITGLKKLMHSNSLNNSNIPRFGVKTDQEELLAQELENLNKWGLNIFCVSDYAGGRSLTCIMYMIFQERDLLKKFRIPVDTMVTYMLTLEDHYHADVAYHNSLHAADVLQSTHVLLATPALDAVFTDLEILAALFAAAIHDVDHPGVSNQFLINTNSELALMYNDESVLENHHLAVGFKLLQEDNCDIFQNLSKRQRQSLRKMVIDMVLATDMSKHMTLLADLKTMVETKKVTSSGVLLLDNYSDRIQVLRNMVHCADLSNPTKPLELYRQWTDRIMAEFFQQGDRERERGMEISPMCDKHTASVEKSQVGFIDYIVHPLWETWADLVHPDAQEILDTLEDNRDWYYSAIRQSPSPPPEEESRGPGHPPLPDKFQFELTLEEEEEEEISMAQIPCTAQEALTAQGLSGVEEALDATIAWEASPAQESLEVMAQEASLEAELEAVYLTQQAQSTGSAPVAPDEFSSREEFVVAVSHSSPSALALQSPLLPAWRTLSVSEHAPGLPGLPSTAAEVEAQREHQAAKRACSACAGTFGEDTSALPAPGGGGSGGDPT
stoichiometry N [2]: 2
